Data on 1 protein can be found in paper PMC10783487 (Nucleic Acids Research, 2023).

This series deals with the molecule itself. Nature of the series: crystal structure.

B1: Thermoanaerobacter brockii Can2 E341A mutant (TbrCan2^E341A), catalytically inactive (enzyme)
chain: MNEKVLVLIVGTNPLPNYVVGSHLKEKYDKFVLIYSEKNDKINQNSTYDYAKKLKEHLNLNDKCIFLPLSDVSNSEKIINDLREKFPSEDFVEVHLNYTGGTKTMVVHIYNFLKEKFKNNKIKFEGSYLDARDYKLVYDYSEEAISLKDTIKIDINTLLSIHLYEDIHFEFYDTYSYKQKFVDSFDKISQEIEKAIKDDKGEDFVKWLEDPFRKIFKGENKLLEKTAKFKKHIEKLLKDNDSSPIVKFNEKTPQFIWDILNAFPEGKKLNDGQKLWIPDDKITNDNLSSRVKDTVEFLNGKWFEWYVYSQIKSELLDRKLKEGEHFGISLKAQKKDSPYFALDIFLINGYQLIGISLTTSSTRELCKLKGFEVIHRVRQIGGDESKAILITGMDKSKTEDLQKDLAYETGSTQKRFVVFGIDDWADIGSKICEEVFK
In the case of B1, the “stoichiometry N” value was 2.
